Experimental data from PMC3978877.

Molecular target: TNFα (UniProt P06804)
Sequence of UniProt P06804 (P06804 80-235): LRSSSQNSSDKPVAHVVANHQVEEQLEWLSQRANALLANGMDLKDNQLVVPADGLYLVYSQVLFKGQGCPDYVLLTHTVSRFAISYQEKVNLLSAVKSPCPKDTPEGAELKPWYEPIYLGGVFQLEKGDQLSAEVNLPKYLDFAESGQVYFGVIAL

B1: muTNFR-Fc (Fc fusion)
chain: VPAQVVLTPYKPEPGYECQISQEYYDRKAQMCCAKCPPGQYVKHFCNKTSDTVCADCEASMYTQVWNQFRTCLSCSSSCTTDQVEIRACTKQQNRVCACEAGRYCALKTHSGSCRQCMRLSKCGPGFGVASSRAPNGNVLCKACAPGTFSDTTSSTDVCRPHRICSILAIPGNASTDAVCAPESPTLSAIPRTLYVSQPEPTRSQPLDQEPGPSQTPSILTSLGSTPIIEQSTKGG
For B1, the inhibition of TNF-mediated killing of lung murine fibroblasts (TNFα trimer 5 pM, actinomycin D 2 μg/ml, muTNFR-Fc 50 nM to 0.1 pM, 24 h); half-maximal inhibitory concentration was 0.1 nM.
